Data reported in the Immune Epitope Database (IEDB).

Legend:
Assay in all cases: IEDB peptide-MHC binding, cellular MHC/competitive/fluorescence; ≥ and ≤ were set here for values at or beyond the usual limits of such assays
HLA-A*02:02 = settings: source organism: Human papillomavirus 16
HLA-A*02:05 = settings: source organism: Human papillomavirus 16
HLA-A*02:03 = settings: source organism: Human papillomavirus 16
HLA-A*02:06 = settings: source organism: Human papillomavirus 16
HLA-A*02:04 = molecular target: HLA-A*02:04
[1] = source organism: Human papillomavirus 16

Sequence | IC50 (HLA-A*02:02) [µM] | IC50 (HLA-A*02:05) [µM] | IC50 (HLA-A*02:03) [µM] | IC50 (HLA-A*02:06) [µM] | IC50 (HLA-A*02:04; [1]) [µM] | IC50 (HLA-A*02:04; source organism: Hepatitis B virus) [µM]
YMLDLQPETT | 6 | ≥ 100 | 5 | ≥ 70 | 11 | –
FLPSDFFPSV | – | – | – | – | – | 1
TLGIVCPI | 4 | ≥ 20 | 2 | 28 | 4 | –
